# Reference: the Immune Epitope Database (IEDB)
# What was measured:
# HLA-A*02:03 = assay: IEDB peptide-MHC binding, purified MHC/direct/fluorescence; filed as Kd, often an IC50 or EC50 that approximates it; ≥ and ≤ were set here for values at or beyond the usual limits of such assays
# HLA-A*02:11 = assay: as above
# HLA-A*02:12 = assay: as above
# HLA-A*02:16 = assay: as above
# HLA-A*02:19 = assay: as above
# HLA-A*03:01 = assay: as above
# HLA-A*23:01 = assay: as above
# HLA-A*24:03 = assay: as above
# HLA-A*26:01 = assay: as above
# HLA-A*29:02 = assay: as above; settings: source organism: Orthohantavirus andesense
# HLA-A*68:02 [1] = assay: as above
# HLA-A*02:01 [2] = assay: IEDB peptide-MHC binding, purified MHC/competitive/fluorescence; filed as Kd, often an IC50 or EC50 that approximates it; ≥ and ≤ were set here for values at or beyond the usual limits of such assays
# HLA-A*69:01 [3] = assay: as above
# HLA-B*18:01 [4] = assay: as above; settings: source organism: Orthohantavirus andesense
# HLA-B*27:03 [5] = assay: as above
# HLA-B*35:01 = assay: as above
# HLA-B*39:01 [6] = assay: as above
# HLA-B*46:01 [7] = assay: as above; settings: source organism: Orthohantavirus andesense
# HLA-B*51:01 = assay: as above
# HLA-B*57:01 [8] = assay: as above; settings: source organism: Orthohantavirus andesense
# HLA-A*01:01 = assay: IEDB peptide-MHC binding, purified MHC/direct/fluorescence; filed as Kd, often an IC50 or EC50 that approximates it; ≥ and ≤ were set here for values at or beyond the usual limits of such assays
# HLA-A*02:01 [9] = assay: as above
# HLA-A*11:01 = assay: as above
# HLA-A*31:01 = assay: as above
# HLA-A*69:01 [10] = assay: as above
# HLA-B*07:02 = assay: as above
# HLA-B*08:01 [11] = assay: as above; settings: source organism: Coxiella burnetii Q321
# HLA-B*15:01 = assay: as above
# HLA-B*27:05 = assay: as above
# HLA-B*39:01 [12] = assay: as above
# HLA-B*40:01 = assay: as above
# HLA-B*44:02 = assay: as above
# HLA-B*48:01 = assay: as above
# HLA-B*57:01 [13] = assay: as above
# HLA-B*58:01 = assay: as above
# HLA-A*68:02 [14] = assay: IEDB peptide-MHC binding, purified MHC/competitive/fluorescence; filed as Kd, often an IC50 or EC50 that approximates it; ≥ and ≤ were set here for values at or beyond the usual limits of such assays; settings: source organism: Coxiella burnetii RSA 331
# HLA-B*15:09 = assay: as above
# HLA-B*15:17 [15] = assay: as above; settings: source organism: Coxiella burnetii RSA 331
# HLA-B*15:17 [16] = assay: IEDB peptide-MHC binding, purified MHC/direct/fluorescence; filed as Kd, often an IC50 or EC50 that approximates it; ≥ and ≤ were set here for values at or beyond the usual limits of such assays
# HLA-B*18:01 [17] = assay: as above
# HLA-B*08:01 [18] = assay: IEDB peptide-MHC binding, purified MHC/competitive/fluorescence; filed as Kd, often an IC50 or EC50 that approximates it; ≥ and ≤ were set here for values at or beyond the usual limits of such assays; settings: source organism: Brucella canis ATCC 23365
# HLA-B*27:03 [19] = assay: IEDB peptide-MHC binding, purified MHC/direct/fluorescence; filed as Kd, often an IC50 or EC50 that approximates it; ≥ and ≤ were set here for values at or beyond the usual limits of such assays; settings: source organism: Giardia lamblia ATCC 50803
# HLA-B*46:01 [20] = assay: as above; settings: source organism: Giardia lamblia ATCC 50803
# [21] = source organism: Orthohantavirus andesense
# [22] = source organism: Coxiella burnetii
# [23] = source organism: Coxiella burnetii RSA 331
# [24] = source organism: Brucella abortus 2308
# [25] = source organism: Brucella canis ATCC 23365
# [26] = source organism: Ebola virus - Gabon (1994-1997)
# [27] = source organism: Zaire ebolavirus
# [28] = source organism: Giardia lamblia ATCC 50803
sequence,measurement,setting,value
DAVEDFLAF,Kd,HLA-A*02:03; [21],≥ 20 µM
same,Kd,HLA-A*02:11; [21],≥ 20 µM
same,Kd,HLA-A*02:12; [21],≥ 20 µM
same,Kd,HLA-A*02:16; [21],≥ 20 µM
same,Kd,HLA-A*02:19; [21],≥ 20 µM
same,Kd,HLA-A*03:01; [21],≥ 20 µM
same,Kd,HLA-A*23:01; [21],≥ 20 µM
same,Kd,HLA-A*24:03; [21],≥ 20 µM
same,Kd,HLA-A*26:01; [21],0.0126 µM
same,Kd,HLA-A*29:02,≥ 20 µM
same,Kd,HLA-A*68:02 [1]; [21],≥ 20 µM
same,Kd,HLA-A*02:01 [2]; [21],≥ 20 µM
same,Kd,HLA-A*69:01 [3]; [21],≥ 20 µM
same,Kd,HLA-B*18:01 [4],≥ 20 µM
same,Kd,HLA-B*27:03 [5]; [21],≥ 20 µM
same,Kd,HLA-B*35:01; [21],≤ 0.0001 µM
same,Kd,HLA-B*39:01 [6]; [21],≥ 20 µM
same,Kd,HLA-B*46:01 [7],≥ 20 µM
same,Kd,HLA-B*51:01; [21],≥ 20 µM
same,Kd,HLA-B*57:01 [8],≥ 20 µM
HEGDIVPLF,Kd,HLA-A*01:01; [22],≥ 20 µM
same,Kd,HLA-A*02:01 [9]; [22],≥ 20 µM
same,Kd,HLA-A*03:01; [22],≥ 20 µM
same,Kd,HLA-A*11:01; [22],≥ 20 µM
same,Kd,HLA-A*31:01; [22],≥ 20 µM
same,Kd,HLA-A*69:01 [10]; [22],≥ 20 µM
same,Kd,HLA-B*07:02; [22],≥ 20 µM
same,Kd,HLA-B*08:01 [11],≥ 20 µM
same,Kd,HLA-B*15:01; [22],15 µM
same,Kd,HLA-B*27:05; [22],≥ 20 µM
same,Kd,HLA-B*39:01 [12]; source organism: Coxiella burnetii Q321,≥ 20 µM
same,Kd,HLA-B*40:01; [22],0.312 µM
same,Kd,HLA-B*44:02; [22],6 µM
same,Kd,HLA-B*48:01; [22],≥ 20 µM
same,Kd,HLA-B*57:01 [13]; [22],≥ 20 µM
same,Kd,HLA-B*58:01; [22],≥ 20 µM
same,Kd,HLA-A*68:02 [14],≥ 20 µM
same,Kd,HLA-B*15:09; [23],≥ 20 µM
same,Kd,HLA-B*15:17 [15],0.644 µM
same,Kd,HLA-B*35:01; [23],0.183 µM
IEVKFHPIL,Kd,HLA-A*01:01; [24],≥ 20 µM
same,Kd,HLA-A*02:01 [9]; [24],≥ 20 µM
same,Kd,HLA-A*03:01; [24],≥ 20 µM
same,Kd,HLA-A*11:01; [24],≥ 20 µM
same,Kd,HLA-A*26:01; source organism: Brucella suis 1330,≥ 20 µM
same,Kd,HLA-A*31:01; [24],≥ 20 µM
same,Kd,HLA-A*68:02 [1]; [24],≥ 20 µM
same,Kd,HLA-A*69:01 [10]; [24],≥ 20 µM
same,Kd,HLA-B*07:02; [24],≥ 20 µM
same,Kd,HLA-B*15:01; [24],≥ 20 µM
same,Kd,HLA-B*15:17 [16]; [24],≥ 20 µM
same,Kd,HLA-B*18:01 [17]; [24],0.006 µM
same,Kd,HLA-B*27:05; [24],≥ 20 µM
same,Kd,HLA-B*40:01; [24],0.013 µM
same,Kd,HLA-B*44:02; [24],≥ 20 µM
same,Kd,HLA-B*48:01; [24],0.534 µM
same,Kd,HLA-B*57:01 [13]; [24],≥ 20 µM
same,Kd,HLA-B*58:01; [24],≥ 20 µM
same,Kd,HLA-B*08:01 [18],0.811 µM
same,Kd,HLA-B*15:09; [25],0.0868 µM
same,Kd,HLA-B*39:01 [6]; [25],1.06 µM
TAAIMLASY,Kd,HLA-A*01:01; [26],≥ 20 µM
same,Kd,HLA-A*02:03; [27],≥ 20 µM
same,Kd,HLA-A*02:11; [27],≥ 20 µM
same,Kd,HLA-A*02:12; [27],≥ 20 µM
same,Kd,HLA-A*02:16; [27],≥ 20 µM
same,Kd,HLA-A*02:19; [27],≥ 20 µM
same,Kd,HLA-A*03:01; [27],≥ 20 µM
same,Kd,HLA-A*23:01; [27],≥ 20 µM
same,Kd,HLA-A*24:03; [27],≥ 20 µM
same,Kd,HLA-A*26:01; [26],1.29 µM
same,Kd,HLA-A*68:02 [1]; [27],≥ 20 µM
same,Kd,HLA-A*02:01 [2]; [27],≥ 20 µM
same,Kd,HLA-A*69:01 [3]; [27],≥ 20 µM
same,Kd,HLA-B*27:03 [5]; [27],≥ 20 µM
same,Kd,HLA-B*35:01; [27],0.0002 µM
same,Kd,HLA-B*39:01 [6]; [27],≥ 20 µM
same,Kd,HLA-B*51:01; [27],≥ 20 µM
VLLISDPGL,Kd,HLA-A*02:03; [28],≥ 20 µM
same,Kd,HLA-A*02:11; [28],≥ 20 µM
same,Kd,HLA-A*02:12; [28],≥ 20 µM
same,Kd,HLA-A*03:01; [28],≥ 20 µM
same,Kd,HLA-A*24:03; [28],≥ 20 µM
same,Kd,HLA-A*26:01; [28],≥ 20 µM
same,Kd,HLA-A*68:02 [1]; [28],≥ 20 µM
same,Kd,HLA-A*69:01 [10]; [28],≥ 20 µM
same,Kd,HLA-B*15:01; [28],≥ 20 µM
same,Kd,HLA-B*15:17 [16]; [28],0.254 µM
same,Kd,HLA-B*18:01 [17]; [28],≥ 20 µM
same,Kd,HLA-B*27:03 [19],≥ 20 µM
same,Kd,HLA-B*39:01 [12]; [28],≥ 20 µM
same,Kd,HLA-B*46:01 [20],≥ 20 µM
same,Kd,HLA-B*57:01 [13]; [28],≥ 20 µM
